Consider eight molecules from patent US20230227539A1 (HIFIBIO HK, published 2023).

Positions count from the first letter of the chain named.

Test [1] addresses T1, SARS-CoV-2 S protein on pseudotyped virus (wild type) (SARS-CoV-2, UniProt P0DTC2 14-1273). In words: cell-based or functional assay.
Test [2] has as its target T1, SARS-CoV-2 S protein on pseudotyped …. In words: cell-based or functional assay. This is another data set of the same source.
Test [3] deals with SARS-CoV-2 Spike S1, mFc tag spike protein (SARS-CoV-2, UniProt P0DTC2 16-685).
Test [4] deals with T2, SARS-CoV-2 Spike S1+S2 ECD, his Tag protein (SARS-CoV-2, UniProt P0DTC2 14-1213).
T2 construct: extracellular domain
Kind of test: binding to full-length S protein.

In test [5] the target is T2, SARS-CoV-2 Spike S1+S2 ECD, his Tag …. Kind of test: ELISA on His-tagged S1+S2 ECD (FIG. 7).
Test [6] has the same target. In words: ELISA, coated S1+S2 ECD His.
The target is the same in test [7]. In words: ELISA (FIG. 6). In general terms: An ELISA detects its analyte on a solid surface through an enzyme-linked reagent.
The target in test [8] is T3, SARS-CoV-2 S1 protein (S1 fragment of the S protein) (SARS-CoV-2, UniProt P0DTC2 16-685).
T3 construct: domain: S1
Kind of test: SPR negative control; as indicated by the domain ELISA.

B1: Ab-2 IgG1 (antibody, V domains shown)
VH: EVQLVESGGGLIQPGGSLRLSCAASGFIVSSNYMSWVRQAPGKGLEWVSIIYSGGSTFYADSVKGRFTISRDNSKNTLYLQMNSLRVEDTAVYYCARDLQELGSLDYWGQGTLVTVSS
VL: DIQMTQSPSSVSASVGDRVTITCRASQGISSWLAWYQQKPGKAPKLLIYAASSLQSGVPSRFSGSGSGTDFTLTISSLQPEDFATYYCQEANSFPYTFGQGTKLEIKR
notes: also called 2A2A; C1S5-2A2A
The IC50 is the concentration that gives 50% inhibition. High values mean a need for much substance, low ones inhibition by little substance. As a reminder, the EC50 is the concentration needed to bring the measured effect to its halfway point. Read a high EC50 as weaker potency. One may read the EC90 as the concentration needed for an effect of 90%. A low value points to an effect from little substance. For the molecule B1, in test [1], the “Pseudo-virus neutralization IC50” value stood at 0.53 nM and the “Pseudo-virus neutralization IC90” value is 4.76 nM. In addition, in test [2], the “Pseudo-virus neutralization (Test 1) IC80” value worked out at 2.11 nM, the “Pseudo-virus neutralization (Test 2) IC50” value is 0.32 nM and the “Pseudo-virus neutralization (Test 2) IC80” value is 1.29 nM. Further, in test [3], it took 3.78 nM to reach half-maximal inhibition (IC50). For the same molecule, the EC50 in test [4] worked out at 0.55 nM. In addition, the midpoint of the response in test [5], the EC50, lay at 0.021 nM. Besides, in test [6], the EC50 is 0.5 nM and the concentration for an effect of 90% (EC90) amounted to 2.56 nM.

B2: Ab-8 (antibody, V domains shown)
VH: B1 VH with S25P
VL: B1 VL
As for B2, the binding result in test [7] is on record as “binds”.

B3: Ab-9 (antibody, V domains shown)
VH: B1 VH with Y107C
VL: B1 VL
On to B3, for which the binding result in test [7] is recorded as “binds”.

B4: Ab-4 (IgG1) (antibody, V domains shown)
VH: QITLKESGPTLVKPTQTLTLTCTFSGFSLSTSGVGVGWIRQPPGKALEWLALIYWDDDKRYSPSLKSRLTITKDTSKNQVVLTMTNMAPVDTATYYCAHRLSNFWSGYYTGWGQGTLVTVSS
VL: not shown
As for B4, in test [1], the “Pseudo-virus neutralization IC50” value was greater than 300 nM and the “Pseudo-virus neutralization IC90” value is greater than 300 nM. Moreover, in test [3], the IC50 is greater than 300 nM. Also, the binding result in test [8] is “no binding”. In test [6], the EC50 was determined as 14.2 nM and the EC90 was 328 nM.

B5: Ab-6 (antibody, V domains shown)
VH: QVQLVQSGAEVKKPGASVKVSCKVSGYTLTELSMHWVRQAPGKGLEWMGGFDPEDGETIYAQKFQGRVTMTEDTSTDTAYMELSSLRSEDTAVYYCATGHQLLFYNWFDPWGQGTLVTVSS
VL: QSALTQPPSASGSPGQSVTISCTGTSSDVGGYNYVSWYQQHPGKAPKLMIYEVSKRPSGVPDRFSGSKSGNTASLTVSGLQAEDEADYYCSSYAGSNNLVFGGGTKLTVLG
On to B5, for which the binding result in test [7] is given as “binds”.

B6: Ab-7 (antibody, V domains shown)
VH: EVQLVESGGGLVKPGGSLRLSCAASGFAFSSYTMNWVRQAPGKGLAWVSSISSSSDYIFYADSVKGRCTISRDNAKNSLSLQMNSLRAEDTAVYYCARGSNTAWGGVPDAFDFWGLGTVVTVSS
VL: B5 VL with G31R, A82T
With B6, the binding result in test [7] was “binds”.

B7: Ab-3 (IgG1) (antibody, V domains shown)
VH: QLQLQESGPGLVKPSETLSLTCTVSGGSISSTIYYWGWIRQPPGKGLEWIGSIYYSGNAYYNPSLKSRVTISVDTSKNQFSLMLNSVTASDTAVYYCATPHTRWGPDYWGQGTLVTVSS
VL: NFMLTQPHSVSASPGKTVTVSCTRSSGSIASNYVLWYQQRPGSAPTTVIYEDDQRPSGVPDRFSASIDSSSNSASLTISGLKTEDEADYYCQSYDGDNLVFGGGTKLTVLG
Regarding B7, in test [1], the “Pseudo-virus neutralization IC50” value amounted to 5.8 nM and the “Pseudo-virus neutralization IC90” value stood at 52.2 nM. For the same molecule, in test [2], the “Pseudo-virus neutralization (Test 1) IC80” value came out at 23.2 nM, the “Pseudo-virus neutralization (Test 2) IC50” value came to 2.61 nM and the “Pseudo-virus neutralization (Test 2) IC80” value turned out to be 10.4 nM. Also, the IC50 in test [3] amounted to 10.6 nM. In test [6], this molecule came in with an EC50 of 0.5 nM and an EC90 of 9.36 nM.

B8: Ab-1 (IgG1) (antibody, V domains shown)
VH: B7 VH with T32S, M83K, S90A
VL: B7 VL
As to B8, in test [1], the “Pseudo-virus neutralization IC50” value came out at 4.07 nM and the “Pseudo-virus neutralization IC90” value came out at 36.6 nM. In test [2], the “Pseudo-virus neutralization (Test 1) IC80” value turned out to be 16.3 nM, the “Pseudo-virus neutralization (Test 2) IC50” value came out at 1.62 nM and the “Pseudo-virus neutralization (Test 2) IC80” value is 6.48 nM. Also, in test [3], the IC50 was 11.1 nM. Moreover, in test [6], the response was half-maximal at 0.53 nM (EC50) and it took 6.03 nM to reach the 90% level (EC90).
